Source: patent US20190367615A1 (BEIJING HANMI PHARM, published 2019)

How the values were obtained:
[1] = target: T1, Recombinant human CD86 (Sino Biological Inc.) (human, UniProt P42081 24-247, limits assumed); test: binding specificity ELISA, coated recombinant human CD86, anti-human IgG-HRP
T1 sequence (looked up): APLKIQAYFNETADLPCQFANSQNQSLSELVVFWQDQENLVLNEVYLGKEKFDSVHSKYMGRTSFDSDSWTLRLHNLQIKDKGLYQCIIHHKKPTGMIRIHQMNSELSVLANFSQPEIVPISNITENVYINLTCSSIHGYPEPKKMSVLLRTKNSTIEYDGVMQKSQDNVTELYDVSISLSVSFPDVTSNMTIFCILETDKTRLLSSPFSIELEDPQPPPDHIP
Method: (§1) The plate was washed five times with PBST and blocked with 300 μL/well of PBST containing 1% BSA and incubated at 25° C. for 1 hour. The plate was washed five times with PBST. […] The plate was washed five times with PBST. Then, horseradish peroxidase-labeled anti-human IgG antibody (Chemicon, Catalog Number AP309P) 1:2000 diluted in PBST containing 1% BSA was added, 100 μL was added to each well, incubated at 25° C. for 1 hour. The plate was washed five times with PBST. 100 μL/well of colorimetric substrate TMB was added and incubated at room temperature for 10 minutes. Color development was terminated by adding 100 μL/well of 1 M H₂SO₄. The absorbance at 450 nm was read on a microplate reader.

[2] = target: T2, Recombinant human CD80 (Sino Biological Inc.) (human, UniProt P33681 35-242); test: binding specificity ELISA, coated recombinant human CD80, anti-human IgG-HRP
T2 sequence (looked up): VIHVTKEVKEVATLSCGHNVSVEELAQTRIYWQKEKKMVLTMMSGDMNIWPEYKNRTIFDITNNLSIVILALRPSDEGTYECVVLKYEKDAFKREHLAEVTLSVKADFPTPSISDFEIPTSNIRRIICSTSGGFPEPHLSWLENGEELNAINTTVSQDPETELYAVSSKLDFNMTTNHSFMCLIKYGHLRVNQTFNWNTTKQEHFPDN
Method: as §1

[3] = target: T3, Recombinant human B7-H2 (Sino Biological Inc.) (human, UniProt O75144 19-256, limits assumed); test: binding specificity ELISA, coated recombinant human B7-H2, anti-human IgG-HRP
T3 sequence (looked up): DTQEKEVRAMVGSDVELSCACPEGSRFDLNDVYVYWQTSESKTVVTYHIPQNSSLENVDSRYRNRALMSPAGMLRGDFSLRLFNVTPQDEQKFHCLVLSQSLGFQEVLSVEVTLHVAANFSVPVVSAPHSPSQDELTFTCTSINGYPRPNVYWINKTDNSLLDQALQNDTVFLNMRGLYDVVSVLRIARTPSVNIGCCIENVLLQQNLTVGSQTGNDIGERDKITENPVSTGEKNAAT
Method: as §1

[4] = target: T4, Recombinant human PD-1 (Sino Biological Inc., Catalog Number 10377-H08H) (human, UniProt Q15116 25-167); test: ELISA, human PD-1 coated
T4 construct: Bought protein; also called antigen PD-1
Method: Recombinant human PD-1 (purchased from Sino Biological Inc.) was coated on a 96-well high-absorbing ELISA plate with a carbonate buffer solution with pH 9.6, the coating concentration was 1 μg/mL, the coating amount was 100 μL per well, and the coating was carried out at 4° C. overnight. The plate was washed five times with PBST and blocked with 300 μL/well of PBST containing 1% BSA, and then incubated at 25° C. for 1 hour. The plate was washed five times with PBST. […] The plate was washed five times with PBST. Then, horseradish peroxidase-labeled anti-human IgG antibody (Chemicon, Catalog Number AP309P) 1:2000 diluted in PBST containing 1% BSA was added, 100 μL per well, incubated at 25° C. for 1 hour. The plate was washed five times with PBST. 100 μL/well of colorimetric substrate TMB was added and incubated at room temperature for 10 minutes. Color development was terminated by adding 100 μL/well of 1 M H₂SO₄. The absorbance at 450 nm was read on a microplate reader.

[5] = target: T5, Recombinant human PD-1-Fc (human, UniProt Q15116 25-167, limits assumed); test: competition ELISA, PD-1-Fc coated, competitor biotin-labeled PD-L1
T5 construct: also called recombinant human PD-1-Fc protein; not shown: Fc part
Method: Recombinant human PD-1-Fc was coated on a 96-well high-absorbing ELISA plate with a carbonate buffer solution with pH 9.6, the coating concentration was 1 μg/mL, the coating amount was 100 μL per well, and the coating was carried at 4° C. out overnight. The plate was washed five times with PBST and blocked with 300 μL/well of PBST containing 1% BSA and incubated at 25° C. for 1 hour. The plate was washed five times with PBST. The positive control and the anti-human PD-1 antibody sample were added, 50 μL per well. […] The plate was washed five times with PBST. Then, Streptavidin-HRP (BD Pharmingen, Catalog Number 554066) 1:1000 diluted in PBST containing 1% BSA was added, 100 μL per well, incubated at 25° C. for 1 hour. The plate was washed five times with PBST. 100 μL/well of colorimetric substrate TMB was added and incubated at room temperature for 10 minutes. Color development was terminated by adding 100 μL/well of 1 M H₂SO₄. The absorbance at 450 nm was read on a microplate reader.

[6] = target: T4, Recombinant human PD-1 (Sino Biological …); test: species specificity ELISA, coated recombinant human PD-1 (1 ug/mL), anti-human IgG-HRP, OD450nm
Method: Recombinant human PD-1, monkey PD-1, rat PD-1 and mouse PD-1 (all purchased from Sino Biological Inc.), were coated on a 96-well high-absorbing ELISA plate with a carbonate buffer solution with pH 9.6, the coating concentration was 1 μg/mL, the coating amount was 100 μL per well, and the coating was carried out at 4° C. overnight. The plate was washed five times with PBST and blocked with 300 μL/well of PBST containing 1% BSA, and then incubated at 25° C. for 1 hour. The plate was washed five times with PBST. […] The plate was washed five times with PBST. Then, horseradish peroxidase-labeled anti-human IgG antibody (Chemicon, Catalog Number AP309P) 1:2000 diluted in PBST containing 1% BSA was added, 100 μL per well, incubated at 25° C. for 1 hour. The plate was washed five times with PBST. 100 μL/well of colorimetric substrate TMB was added and incubated at room temperature for 10 minutes. Color development was terminated by adding 100 μL/well of 1 M H₂SO₄: The absorbance at 450 nm was read on a microplate reader.

T4 sequence (Q15116 25-167 limits assumed): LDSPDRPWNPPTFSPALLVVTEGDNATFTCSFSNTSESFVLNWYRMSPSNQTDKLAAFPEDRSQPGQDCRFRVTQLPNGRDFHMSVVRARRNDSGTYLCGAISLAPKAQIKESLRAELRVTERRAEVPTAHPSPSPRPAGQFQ
T5 sequence (Q15116 25-167 limits assumed): as above

binding result [1]: no binding
binding result [2]: no binding
binding result [3]: no binding
EC50 [4]: 0.031 nM
IC50 [5]: 1.45 nM
EC50 [6]: 0.092 nM
B1: anti-human PD-1 chimeric monoclonal antibody (antibody, human IgG4 S228P, kappa, V domains shown)
VH: EVQLQESGGGLVKPGGSLKLSCAASGFTFSSYGMSWVRQTPEKRLEWVASISGGGRYTYYPDSMKGRFTISRDNAKNNLHLQMSSLRSEDTALYYCVYEYFYTMDYWGQGTSVTVSS
VL: DIVLTQSPATLSVTPGDSVSLSCRANQSISNNLHWYQQRSHESPRLLIRFASQSISGIPSRFSGSGSGTDFTLSINSVETEDFGMYFCQQSDNWPLTFGAGTKLEIKR
notes: expressed in 293F cells; also called Anti-human PD-1 Chimeric Antibody; chimeric anti-human PD-1 monoclonal antibody
